In experiment [1] the target is Dsg3-Fc recombinant fusion protein (Homo sapiens, UniProt P32926). Briefly: SPR.
Experiment [2] addresses desmoglein 3 (Dsg3) on Dsg3 ELISA plates (Homo sapiens, UniProt P32926). Briefly: ELISA.

Dsg3-Fc recombinant fusion protein, sequence (P32926 50-615): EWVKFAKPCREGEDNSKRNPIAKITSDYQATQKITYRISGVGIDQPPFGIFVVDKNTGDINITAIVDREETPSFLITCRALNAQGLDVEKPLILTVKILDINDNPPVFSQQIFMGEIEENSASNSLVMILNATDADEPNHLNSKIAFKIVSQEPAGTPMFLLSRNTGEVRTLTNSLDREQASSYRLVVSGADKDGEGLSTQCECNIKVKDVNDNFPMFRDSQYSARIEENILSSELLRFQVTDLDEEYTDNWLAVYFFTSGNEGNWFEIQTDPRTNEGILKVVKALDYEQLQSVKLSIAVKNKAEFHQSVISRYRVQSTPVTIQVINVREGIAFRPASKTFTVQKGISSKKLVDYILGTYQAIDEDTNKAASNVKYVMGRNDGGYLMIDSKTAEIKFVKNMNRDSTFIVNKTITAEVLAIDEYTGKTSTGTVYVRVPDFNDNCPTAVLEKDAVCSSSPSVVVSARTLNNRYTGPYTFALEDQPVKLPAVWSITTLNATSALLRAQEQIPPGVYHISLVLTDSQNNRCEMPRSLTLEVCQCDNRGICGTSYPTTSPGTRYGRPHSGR
desmoglein 3 (Dsg3) on Dsg3 ELISA plates, sequence (P32926 50-615): as above

B1: PVE4-8 scFv mAb, somatically mutated (scFv, V domains shown)
VH: QVQLVQSWAEVKKPGASVKFSCKASGYTFTAYYMHWVRQAPGQGLEWMGIINPSGGIATYAEKFQGRVTMTRDTSTTTVYMELSSLRSQDAAVYYCARDRQGFDLDVWGQGTTVTVSS
VL: ELVLTQPPSASGSPGQSVTISCTGTSSDVGGYNYVSWYQQHPGKAPKLMIYEVNKRPSGVPDRFSGSRSGNTASLTVSGLQAEDEADYYCSSYAGSNNLVFGGGTKVTVL
Regarding B1, in experiment [1], the Kd came to 2.39 nM, the koff worked out at 0.00123 s⁻¹ and the kon came to 515000 M⁻¹ s⁻¹.

B2: 4.2 scFv mAb, somatically mutated (scFv, V domains shown)
VH: EVQLVQSGAEVKKPGASLKVSCQASGYIFTSHYIHWVRQAPGQGLEWMGIINPSGGKTTFAQKFQGRVTMTRDTSTRTVYMEMSGLRSEDTAVYYCARDQSLGMDVWGQGTTVIVSS
VL: ELALTQPPSVSGSPGQSITISCTGTSSDVGGYNYVSWYQQHPGKAPKLMIYEVSKRPSGVSNRFSGSKSGNTASLTISGLQAEDEADYYCSSYAGSNNWVFGGGTKLTVL
Consider B2, for which, in experiment [1], the Kd came to 0.182 nM, the koff turned out to be 0.000712 s⁻¹ and the on-rate (kon) came to 3.91e+06 M⁻¹ s⁻¹.

B3: 3.2 scFv mAb, somatically mutated (scFv, V domains shown)
VH: QVQLVQSGAEVKKPGASVKVSCKASGYTFTSYYMHWVRQAPGHGLEWMGIINPSGGIANYAQKFQGRVTMTRDTSTSTVYMDLSSLTSEDTAVYYCARDLGGFDFDYWGQGTLVTVSS
VL: ELALTQPPSVSGSPGQSVTISCTGTSSDIGRYNFVSWYQQHPGKAPKLMIYEIYKRPSGVPDRFSGSRSGNTASLTVSGLQAEDEADYYCSSYVGNNDLVFGGGTQLTVL
As to B3, in experiment [1], the dissociation constant Kd is 1.42 nM, the off-rate (koff) stood at 0.00231 s⁻¹ and the on-rate constant (kon) was 1.62e+06 M⁻¹ s⁻¹.

B4: F779 scFv, somatically mutated (scFv, V domains shown)
VH: QVQLVQSGADVKKPGASVKVSCTASGNTFTTYSLHWVRQAPGQGLEWMGVIDPSGGSTSYAQKFQGRLTMTRDTSTSTFYMELSSLRSEDTAVYYCARSIESISGRTLGYWGQGTLVTVSS
VL: DIVMTQTPLSSPVTLGQPASISCRSSETLVHSDGNTYLSWLQQRPGQPPRLLIYKISNRFSGVPDRFSGSGAGTDFTLKISRVEAEDVGVYYCLQATEFPYTFGQGTKLEIK
B4: the binding result in experiment [2] is on record as “binds”. In addition, in experiment [1], the Kd turned out to be 1.77 nM, the koff was determined as 0.000548 s⁻¹ and the kon was found to be 310000 M⁻¹ s⁻¹.

Source of the values: paper PMC4120239 (Nature communications, 2014).
